These results are taken from paper PMC5640511 (Current Biology, 2017).

For the experiment, the target named is Bub3 (recombinant, untagged) (human, UniProt O43684 1-328). Briefly: SEC.
Bub3 (recombinant, untagged), sequence (O43684 whole entry): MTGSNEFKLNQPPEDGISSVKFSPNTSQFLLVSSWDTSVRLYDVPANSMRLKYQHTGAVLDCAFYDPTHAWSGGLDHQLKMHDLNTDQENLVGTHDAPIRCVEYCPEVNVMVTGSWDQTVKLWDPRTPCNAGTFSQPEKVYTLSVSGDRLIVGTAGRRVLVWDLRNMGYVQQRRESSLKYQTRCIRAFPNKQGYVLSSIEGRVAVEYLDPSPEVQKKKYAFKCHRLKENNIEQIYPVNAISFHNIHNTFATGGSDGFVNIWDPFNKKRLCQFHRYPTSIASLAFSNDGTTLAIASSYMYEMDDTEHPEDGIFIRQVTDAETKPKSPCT

B1: BubR1 1-571 B1-LL (recombinant) (other)
chain: MAAVKKEGGALSEAMSLEGDEWELSKENVQPLRQGRIMSTLQGALAQESACNNTLQQQKRAFEYEIRFYTGNDPLDVWDRYISWTEQNYPQGGKESNMSTLLERAVEALQGEKRYYSDPRFLNLWLKLGRLCNEPLDMYSYLHNQGIGVSLAQFYISWAEEYEARENFRKADAIFQEGIQQKAEPLERLQSQHRQFQARVSRQTLLALEKEEEEEVFESSVPQRSTLAELKSKGKKTARAPIIRVGGALKAPSQNRGLQNPFPQQMQNNSRITVFDENADEASTAELSKPTVQPWIAPPMPRAKENELQAGPWNTGRSLEHRPRGNTASLIAVPAVLPSFTPYVEETARQPVMTPCKIEPSIRRVITISKSEYSVHSSLASKVDVEQVVMYCKEKIYAGVGEFSFEEIRAEVFRKKLKEQREAELLTSAEKRAEMQKQIEEMEKKLKEIQTTQQERTGDQQEETMPTKETTKLQIASESQKIPGMTLSSSVCQVNCCARETSLAENIWQEQPHSKGPSVPFSIFDEFLLSEKKNKSPPADPPRVLAQRRPLAVLKTSESITSNE
Take B1: the binding result is “binds”.
